{"source": "paper PMC6761829", "about": "(Nature structural & molecular biology, 2019)", "binders": {"B1": {"name": "Full-length Drosophila melanogaster spastin with a Walker B mutation (E583Q) (enzyme, UniProt Q8I0P1 1-758, looked up)", "chain": "MVRTKNQSSSSSASSSSTKSPIKSSSGAGSSGGGLGGRQSTHRSSSASNVAAVVAGGSSAAGGGSSSNRRSPGSSPDGDDDTTTTDDLTPTTCSPRSGHHHSYGGYSSSVHKQNLYVVSFPIIFLFNVLRSLIYQLFCIFRYLYGASTKVIYRPHRRDCNIEIVVQNSSKEQQQSLNHPSELNREGDGQEQQLSNQPQRFRPIQPLEMAANRPGGGYSPGPGDPLLAKQKHHHRRAFEYISKALKIDEENEGHKELAIELYRKGIKELEDGIAVDCWSGRGDVWDRAQRLHDKMQTNLSMARDRLHFLALREQDLQMQRLSLKEKQKEEAQSKPQKTREPMLAGMTNEPMKLRVRSSGYGPKATTSAQPTASGRKLTIGSKRPVNLAVANKSQTLPRNLGSKTSVGAVQRQPAKTAATPPAVRRQFSSGRNTPPQRSRTPINNNGPSGSGASTPVVSVKGVEQKLVQLILDEIVEGGAKVEWTDIAGQDVAKQALQEMVILPSVRPELFTGLRAPAKGLLLFGPPGNGKTLLARAVATECSATFLNISAASLTSKYVGDGEKLVRALFAVARHMQPSIIFIDQVDSLLSERSSSEHEASRRLKTEFLVEFDGLPGNPDGDRIVVLAATNRPQELDEAALRRFTKRVYVSLPDEQTRELLLNRLLQKQGSPLDTEALRRLAKITDGYSGSDLTALAKDAALEPIRELNVEQVKCLDISAMRAITEQDFHSSLKRIRRSVAPQSLNSYEKWSQDYGDITI"}}, "key": {"AUC": {"molecular_target": "the molecule itself", "assay": "AUC"}, "[1]": {"molecular_target": "B1", "assay": "AUC"}}, "note": "Where no end group is shown, it is not given here."}
{"binder": "B1", "values": [{"measurement": "stoichiometry N", "setting": "AUC", "result": 6}]}
{"binder": "Atto488-VGSEEEEEEEEEE", "note": "[VGSEEEEEEEEEE peptide labeled with Atto488]", "values": [{"measurement": "binding result", "setting": "[1]", "result": "binds"}]}
